Experimental data: article PMC4188263

Tests used:
[1] = target: methanol dehydrogenase α subunit from Methylococcus capsulatus (Bath) (Methylococcus capsulatus (Bath)); experiment: SEC
[2] = target: methanol dehydrogenase α subunit from Methylococcus capsulatus (Bath) (Methylococcus capsulatus (Bath)); experiment: SEC-MALS
[3] = target: methanol dehydrogenase from Methylococcus capsulatus (Bath), α2β2 dimer (Methylococcus capsulatus (Bath)); experiment: BLI

methanol dehydrogenase α subunit from Methylococcus capsulatus (Bath) (natural protein)
stoichiometry N [1]: 2 | stoichiometry N [2]: 2

spmoB, truncated recombinant periplasmic domains of M. capsulatus (Bath) pMMO subunit pmoB (domain or fragment)
Kd [3]: 9 µM
